T1: MdAIL5 (Malus domestica (apple)?, UniProt A0A678R5P4 1-555)
T1 sequence: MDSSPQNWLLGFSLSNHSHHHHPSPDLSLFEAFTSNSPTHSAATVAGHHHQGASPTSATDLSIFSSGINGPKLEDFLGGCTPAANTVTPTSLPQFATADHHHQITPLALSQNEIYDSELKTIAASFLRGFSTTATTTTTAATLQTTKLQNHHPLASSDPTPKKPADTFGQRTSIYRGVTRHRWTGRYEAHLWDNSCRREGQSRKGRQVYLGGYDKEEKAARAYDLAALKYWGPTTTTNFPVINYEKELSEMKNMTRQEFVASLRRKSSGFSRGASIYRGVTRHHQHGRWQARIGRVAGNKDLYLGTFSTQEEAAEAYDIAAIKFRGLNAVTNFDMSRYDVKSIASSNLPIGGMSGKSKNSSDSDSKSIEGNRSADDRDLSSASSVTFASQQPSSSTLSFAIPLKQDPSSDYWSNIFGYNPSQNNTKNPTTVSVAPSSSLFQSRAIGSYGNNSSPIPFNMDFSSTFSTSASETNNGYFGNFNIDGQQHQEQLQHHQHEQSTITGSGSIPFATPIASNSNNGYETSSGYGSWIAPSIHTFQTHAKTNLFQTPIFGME

B1: Probe with CACAATTGCCTATG (Table S1: MdARF9pro; text and Fig. 6e: MdHB14 promoter) (dsDNA)
DNA 1: TGGGCTATTACATCCCACAATTGCCTATGAGTGGCCAATTTTTCCT
DNA 2: AGGAAAAATTGGCCACTCATAGGCAATTGTGGGATGTAATAGCCCA
B2: Probe with CACGCATCCCGAAG (Table S1: MdHB14pro; text and Fig. 6d: MdARF9 promoter) (dsDNA)
DNA 1: CGTTACACCAAACCACACGCATCCCGAAGCGCCGTTCACGTCAA
DNA 2: TTGACGTGAACGGCGCTTCGGGATGCGTGTGGTTTGGTGTAACG

Biological target: T1, MdAIL5
Test: EMSA; LightShift Chemiluminescent EMSA Kit per manufacturer; buffer, salt, pH and temperature not stated
Settings: protein: recombinant; tags: GST (N-terminal, pGEX-4T-1); cold version unlabeled; blunt

Binder	binding result
B1	binds
B2	binds

Source: publication PMC10673654, “MdAIL5 overexpression promotes apple adventitious shoot regeneration by regulating hormone signaling and activating the expression of shoot development-related genes”
